According to US20180199611A1 (UNIVERSITY OF FLORIDA RESEARCH FOUNDATION, published 2018):

Target: T1, I-A(b) MHC II molecule (;mouse, UniProt P14434 24-218; P14483 28-226)
T1 construct: Custom-prepared PE-labeled tetramer
T1 sequence (MHC II alpha): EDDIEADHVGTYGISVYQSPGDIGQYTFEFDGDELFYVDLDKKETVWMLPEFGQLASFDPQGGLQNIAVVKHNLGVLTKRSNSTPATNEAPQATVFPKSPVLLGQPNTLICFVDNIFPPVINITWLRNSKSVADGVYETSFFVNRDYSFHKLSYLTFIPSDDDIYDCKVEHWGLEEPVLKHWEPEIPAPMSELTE
T1 sequence (MHC II beta): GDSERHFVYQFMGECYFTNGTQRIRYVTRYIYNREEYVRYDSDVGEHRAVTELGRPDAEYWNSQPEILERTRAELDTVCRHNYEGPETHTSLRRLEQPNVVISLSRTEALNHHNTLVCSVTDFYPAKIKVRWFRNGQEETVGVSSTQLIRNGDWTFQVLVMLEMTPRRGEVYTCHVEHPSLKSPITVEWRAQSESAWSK
Assay: peptide binding to MHC II during preparation of I-A(b) tetramers; method not described

B1: DlaT 245-259 peptide (VAPPAPVAPSAPVAA) (peptide)
peptide: VAPPAPVAPSAPVAA
notes: Synthetic 15-mer; It was loaded in a custom PE-labeled I-A(b) tetramer; also called Tetramer DlaT^245 peptide; pep of dihydrolipoamide acyltransferase
B1: binds.
